In PMC10805311, “Pseudomonas aeruginosa two-component system CprRS regulates HigBA expression and bacterial cytotoxicity in response to LL-37 stress” (PLOS Pathogens, 2024):
Positions count from the first letter of the chain named.

What was measured:
[1] = system: biofilms of uropathogenic E. coli; details: cited from earlier work
Description: In the field of microbiology and immunology, the interaction between host antimicrobial peptides and pathogenic bacteria has been a subject of extensive research. The success of bacterial infections depends on a delicate balance of signals exchanged between microbes and hosts. Cationic antimicrobial peptides, including defensins such as α-defensins, β-defensins, and cathelicidin LL-37, are crucial components of innate host defense against bacterial infections. Numerous studies have shown that LL-37 acts as a shield between the host and the external environment, preventing bact ...

[2] = system: T1, CprR H214A H215A (Pseudomonas aeruginosa), ORF:b369b159; test: EMSA
T1 sequence: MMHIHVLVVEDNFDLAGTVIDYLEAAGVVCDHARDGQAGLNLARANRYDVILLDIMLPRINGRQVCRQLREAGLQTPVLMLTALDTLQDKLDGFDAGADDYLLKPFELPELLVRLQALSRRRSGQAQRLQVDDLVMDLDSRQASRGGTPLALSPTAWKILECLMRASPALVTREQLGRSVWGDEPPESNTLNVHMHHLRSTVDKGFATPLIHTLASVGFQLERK

[3] = system: T2, CprR N188A N189A (Pseudomonas aeruginosa), ORF:b369b159; test: EMSA
T2 sequence: T1 sequence with N189A, A215H

[4] = system: T3, CprR (Pseudomonas aeruginosa (PAO1 or PA14; strain of cloned gene not stated)), ORF:b369b159; test: EMSA
T3 sequence: T1 sequence with A215H

[5] = system: T4, CprR S187A S188A (Pseudomonas aeruginosa), ORF:b369b159; test: EMSA
T4 sequence: T1 sequence with S188A, A215H

[6] = system: T5, CprR R198A R199A (Pseudomonas aeruginosa), ORF:b369b159; test: EMSA
T5 sequence: T1 sequence with R199A, A215H

[7] = system: T6, CprR V192A V193A (Pseudomonas aeruginosa), ORF:b369b159; test: EMSA
T6 sequence: T1 sequence with V193A, A215H

[8] = system: T7, CprR W180A W181A (Pseudomonas aeruginosa), ORF:b369b159; test: EMSA
T7 sequence: T1 sequence with W181A, A215H

[9] = system: CprR / higB DNA fragments; test: EMSA, CprR binding to higB promoter DNA; set-up: species or system P. aeruginosa; details: 4°C 30 min
Protocol: (§1) The gene promoters were obtained by PCR. The CprR and DNA fragment were mixed in different ratios (total 10 μL buffer, 25 mM Tris–HCl pH 7.5, 150 mM NaCl, 1 mM MgCl2, 2 mM KCl) and incubated at 4°C for 30 min, then the samples were analyzed by 8% polyacrylamide gel electrophoresis in 0.5 × TBE (Tris/boric acid/EDTA) buffer at 130 V for 120 min. The bands were staining with EB and visualized through BioRad imager.

[10] = system: CprRD53A / higB DNA fragments; test: EMSA, CprRD53A binding to higB promoter DNA; set-up: species or system P. aeruginosa; details: 4°C 30 min
Protocol: as §1

Cecropin A
biofilm disruption [1]: disrupt biofilms of uropathogenic E. coli

CTGGTCGAGTCGATGATGGTGGCCGGGCGCTGAGGCCGGGTTTCCCTCTATAAAACGCCAGCGCTCGTCGCTGGCGTTTTCGTTTCCGCCTGTTCAATTGTCCGCCTCTATGGGGACCATGCTTGTCTTTTGCCAAGAAGAAAACAATAATCAATCTCATTATCGTCTGGTGAGGTTGCC (double strand) [higB promoter (PhigB)]
binding [2]: binds more weakly
binding [3]: binds more weakly
binding [4]: binds
binding [5]: binds more weakly
binding [6]: binds more weakly
binding [7]: binds more weakly
binding [8]: binds more weakly

CC(=O)OP(=O)(O)O [acetyl phosphate (ACP), acetyl phosphate]
effect of acetyl phosphate on DNA binding of CprR [9]: enhanced the binding of CprR to its target higB DNA fragments
effect of acetyl phosphate on DNA binding of CprR ([9]; listed as AcP): enhanced the DNA-binding ability of CprR
effect of acetyl phosphate on DNA binding of the D53A mutant [10]: unable to exhibit this enhanced binding
